Columns and labels:
[1] = biological target: T1, full-length glucagon receptor purified from Sf9 membranes (Homo sapiens, UniProt P47871); test: negative-stain EM (random conical tilt 3D maps); purified GCGR in lauryl maltose neopentyl glycol mixed with mAb23 Fab, complex isolated by size exclusion chromatography, stained with 2% uranyl formate; settings: both partners purified
T1 construct: glucagon receptor (GCGR), full-length construct; the small molecule NNC0640 was present throughout; also called full-length GCGR; GCGR; source: Sf9 membranes, solubilised in DDM/CHS, purified (talon resin), exchanged into lauryl maltose neopentyl glycol
T1 sequence (P47871 26-477): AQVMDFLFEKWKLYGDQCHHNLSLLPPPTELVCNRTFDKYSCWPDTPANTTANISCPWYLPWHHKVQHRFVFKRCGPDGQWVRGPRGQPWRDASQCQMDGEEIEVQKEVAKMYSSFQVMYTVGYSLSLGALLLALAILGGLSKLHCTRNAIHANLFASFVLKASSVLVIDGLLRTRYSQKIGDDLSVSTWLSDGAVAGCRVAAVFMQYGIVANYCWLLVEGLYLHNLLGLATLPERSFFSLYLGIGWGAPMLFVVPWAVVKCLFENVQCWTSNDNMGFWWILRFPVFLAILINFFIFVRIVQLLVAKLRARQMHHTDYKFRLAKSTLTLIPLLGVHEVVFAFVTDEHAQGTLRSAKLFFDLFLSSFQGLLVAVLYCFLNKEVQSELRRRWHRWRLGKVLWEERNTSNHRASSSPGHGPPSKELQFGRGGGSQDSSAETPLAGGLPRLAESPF

[2] = biological target: T2, full-length glucagon receptor (GCGR), purified from Sf9 membranes for EM (Homo sapiens, UniProt P47871); test: negative-stain electron microscopy map (random conical tilt); mAb23 Fab mixed with detergent-purified GCGR (lauryl maltose neopentyl glycol, NNC0640), complex isolated by size exclusion chromatography; 2% uranyl formate stain; about 0.01 uM protein; settings: both partners purified
T2 construct: glucagon receptor (GCGR), human, called the full-length construct; also called full-length GCGR; full-length construct
T2 sequence (P47871 26-477): as above

[3] = tested on: GCGR; settings: cited from earlier work

B1: antigen-binding fragment (Fab) of the monoclonal antibody mAb23 (Fab, V domains shown)
VH: EVQLVESGGGLVQPGGSLRLSCAASGFNIYYNYIHWVRQAPGKGLEWVAEFSPYSGSTYYADSVKGRFTISADTSKNTAYLQMNSLRAEDTAVYYCARSAAIVDWYDYFKGFDYWGQGTLVTVSS
VL: DIQMTQSPSSLSASVGDRVTITCRASQSVSSAVAWYQQKPGKAPKLLIYSASSLYSGVPSRFSGSRSGTDFTLTISSLQPEDFATYYCQQYGSYLYTFGQGTKVEIK
notes: The alignment numbers light chain 1-215 and heavy chain 216-443 in one run; also called mAb23 Fab; source: kindly provided by Genentech
B1: binds [1].

B2: antigen-binding fragment (Fab) of the monoclonal antibody mAb23 (Fab, V domains shown)
VH: B1 VH
VL: B1 VL
notes: Related to mAb1, whose Fab is in PDB 4ERS (cited); also called mAb23 Fab; source: kindly provided by Genentech
B2: binds [2].

B3: mAb23: monoclonal antibody that interacts with the ECD of GCGR; Fab kindly provided by Genentech (antibody, V domains shown)
VH: B1 VH
VL: B1 VL
For B3, the “effect on glucagon binding to the receptor” value [3] is listed as “preventing glucagon from binding to the receptor”.

— paper PMC4532856 (Nature Communications, 2015)
